# Experimental data from patent publication WO2006089678A2 (dated 2006).
# T1: Tat, excreted regulatory protein encoded by HIV-1 (HIV-1 IIIB, in infected Jurkat cells) (HIV-1 IIIB, UniProt P04610 1-86)
# T1 sequence: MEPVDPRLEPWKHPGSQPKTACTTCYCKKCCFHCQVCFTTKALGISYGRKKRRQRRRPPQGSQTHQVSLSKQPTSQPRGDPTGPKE
# Key:
# [1] = biological target: T1, Tat, excreted regulatory protein …; test: cell-based or functional assay
# [2] = biological target: T2, target epitope BSA conjugated peptide (HIV-1, conjugated to BSA); test: ELISA, BSA-conjugated peptide coated on plates, HRP rabbit anti-human IgG, luminescence
# T2 construct: also called peptide conjugated to BSA
binder,measurement,setting,value
"n-CoDeR ® anti-Tat antibody (antibody, V domains shown, Human IgG1 lambda, expressed in CHO cells; also called fully human recombinant IgG1 antibody from the n-CoDeR phage display library) VH: EVQLLESGGGLVQPGGSLRLSCAASGFTFDDYGMAWVRQAPGKGLEWVSGVSWNGSRTHYADSVKGRFTISRDNSKNTLYLQMNSLRAEDTAVYYCARGVAGHDYWGQGTLVTVSS VL: QSVLTQPPSASGTPGQRVTISCSGSRSNIGSHYVFWYQQLPGTAPKLLIYDNNKRPSGVPDRFSGSKSGTSASLAISGLRSEDEADYYCAAWDGSLSGHVVFGGGTKLTVLG","IC50 of inhibition of HIV-1 replication, 1 % initially HIV-1 IIIB infected Jurkat cells, p24 ELISA",[1],0.05 µg/mL
same,"IC50 of inhibition of HIV-1 replication, 3 % initially HIV-1 IIIB infected Jurkat cells, p24 ELISA",[1],0.07 µg/mL
same,EC50,[2],0.7 nM
